Data on 15 molecules can be found in patent US20030186281A1, “Modified tetracycline repressor protein compositions and methods of use” (priority 2001, published 2003).

The test system of the data set is tet operator sequence. In words: β-galactosidase activity of a tetracycline-regulated promoter in transformed E. coli with revTetR, in the presence and absence of anhydrotetracycline (atc). The format is cell-based, Escherichia coli. The following applies: for β-Galactosidase Activity, Cultured Without ATC: RevTetR isolate cultured in the absence of anhydrotetracycline (ATC); for β-Galactosidase Activity, Cultured With ATC: RevTetR isolate cultured in the presence of anhydrotetracycline (ATC). The method in brief:
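TetR(BD) chimera mutants (TetR(B) residues 1–50, TetR(D) 51–208) expressed in E. coli regulating a tet operator-controlled lacZ. β-Galactosidase measured in Miller units at 28 °C and 37 °C with and without anhydrotetracycline; reported as percent of maximal expression without Tet repressor.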

B1: TetRrev96/99-20: revTetR(BD) G96S V99K (protein)
chain: MSRLDKSKVINSALELLNEVGIEGLTTRKLAQKLGVEQPTLYWHVKNKRALLDALAVEILARHHDYSLPAAGESWQSFLRNNAMSFRRALLRYRDSAKKHLGTRPDEKQYDTVETQLRFMTENGFSLRDGLYAISAVSHFTLGAVLEQQEHTAALTDRPAAPDENLPPLLREALQIMDSDDGEQAFLHGLESLIRGFEVQLTALLQIV
modifications: Modified tetracycline repressor
notes: revTetR(BD) G96S V99K
Turning to B1, the “β-Galactosidase Activity, Cultured Without ATC” value turned out to be 81.8583 and the “β-Galactosidase Activity, Cultured With ATC” value is recorded as 3.0074.

B2: TetRrevAtc4-28: revTetR(BD) V57V E58K L60V R62G (protein)
chain: MSRLDKSKVINSALELLNEVGIEGLTTRKLAQKLGVEQPTLYWHVKNKRALLDALAVKIVAGHHDYSLPAAGESWQSFLRNNAMSFRRALLRYRDGAKVHLGTRPDEKQYDTVETQLRFMTENGFSLRDGLYAISAVSHFTLGAVLEQQEHTAALTDRPAAPDENLPPLLREALQIMDSDDGEQAFLHGLESLIRGFEVQLTALLQIV
modifications: Modified tetracycline repressor
notes: revTetR(BD) V57V E58K L60V R62G
With B2, the “β-Galactosidase Activity, Cultured Without ATC” value was 85.141 and the “β-Galactosidase Activity, Cultured With ATC” value amounted to 4.217.

B3: TetRrevAtc4-4: revTetR(BD) I59S R62S (protein)
chain: MSRLDKSKVINSALELLNEVGIEGLTTRKLAQKLGVEQPTLYWHVKNKRALLDALAVESLASHHDYSLPAAGESWQSFLRNNAMSFRRALLRYRDGAKVHLGTRPDEKQYDTVETQLRFMTENGFSLRDGLYAISAVSHFTLGAVLEQQEHTAALTDRPAAPDENLPPLLREALQIMDSDDGEQAFLHGLESLIRGFEVQLTALLQIV
modifications: Modified tetracycline repressor
notes: revTetR(BD) I59S R62S
B3: the “β-Galactosidase Activity, Cultured Without ATC” value was determined as 70.5665 and the “β-Galactosidase Activity, Cultured With ATC” value is listed as 2.5363.

B4: TetRrevAtc4-20: revTetR(BD) V57V E58K L60V A61T R62G (protein)
chain: MSRLDKSKVINSALELLNEVGIEGLTTRKLAQKLGVEQPTLYWHVKNKRALLDALAVKIVTGHHDYSLPAAGESWQSFLRNNAMSFRRALLRYRDGAKVHLGTRPDEKQYDTVETQLRFMTENGFSLRDGLYAISAVSHFTLGAVLEQQEHTAALTDRPAAPDENLPPLLREALQIMDSDDGEQAFLHGLESLIRGFEVQLTALLQIV
modifications: Modified tetracycline repressor
notes: revTetR(BD) V57V E58K L60V A61T R62G
B4: the “β-Galactosidase Activity, Cultured Without ATC” value came out at 78.478 and the “β-Galactosidase Activity, Cultured With ATC” value was 8.048.

B5: TetRrev96P: revTetR(BD) G96P (protein)
chain: MSRLDKSKVINSALELLNEVGIEGLTTRKLAQKLGVEQPTLYWHVKNKRALLDALAVEILARHHDYSLPAAGESWQSFLRNNAMSFRRALLRYRDPAKVHLGTRPDEKQYDTVETQLRFMTENGFSLRDGLYAISAVSHFTLGAVLEQQEHTAALTDRPAAPDENLPPLLREALQIMDSDDGEQAFLHGLESLIRGFEVQLTALLQIV
modifications: Modified tetracycline repressor
notes: revTetR(BD) G96P
For B5, the “β-Galactosidase Activity, Cultured Without ATC” value is given as 24.1109 and the “β-Galactosidase Activity, Cultured With ATC” value is 4.1882.

B6: TetRrevAtc4-22: revTetR(BD) R49H A56P V57L L60M (protein)
chain: MSRLDKSKVINSALELLNEVGIEGLTTRKLAQKLGVEQPTLYWHVKNKHALLDALPLEIMARHHDYSLPAAGESWQSFLRNNAMSFRRALLRYRDGAKVHLGTRPDEKQYDTVETQLRFMTENGFSLRDGLYAISAVSHFTLGAVLEQQEHTAALTDRPAAPDENLPPLLREALQIMDSDDGEQAFLHGLESLIRGFEVQLTALLQIV
modifications: Modified tetracycline repressor
notes: revTetR(BD) R49H A56P V57L L60M
For the molecule B6, the “β-Galactosidase Activity, Cultured Without ATC” value is 80.2859 and the “β-Galactosidase Activity, Cultured With ATC” value is recorded as 3.7584.

B7: TetRrevAtc4-24: revTetR(BD) A56P V57A E58Q H63Q (protein)
chain: MSRLDKSKVINSALELLNEVGIEGLTTRKLAQKLGVEQPTLYWHVKNKRALLDALPAQILARQHDYSLPAAGESWQSFLRNNAMSFRRALLRYRDGAKVHLGTRPDEKQYDTVETQLRFMTENGFSLRDGLYAISAVSHFTLGAVLEQQEHTAALTDRPAAPDENLPPLLREALQIMDSDDGEQAFLHGLESLIRGFEVQLTALLQIV
modifications: Modified tetracycline repressor
notes: revTetR(BD) A56P V57A E58Q H63Q
As to B7, the “β-Galactosidase Activity, Cultured Without ATC” value came out at 61.649 and the “β-Galactosidase Activity, Cultured With ATC” value is 13.63.

B8: TetRrevAtc4-48: revTetR(BD) D53N A54S L55L A56P V57V A61A R62L (protein)
chain: MSRLDKSKVINSALELLNEVGIEGLTTRKLAQKLGVEQPTLYWHVKNKRALLNSLPPEILALHHDYSLPAAGESWQSFLRNNAMSFRRALLRYRDGAKVHLGTRPDEKQYDTVETQLRFMTENGFSLRDGLYAISAVSHFTLGAVLEQQEHTAALTDRPAAPDENLPPLLREALQIMDSDDGEQAFLHGLESLIRGFEVQLTALLQIV
modifications: Modified tetracycline repressor
notes: revTetR(BD) D53N A54S L55L A56P V57V A61A R62L
Take B8: the “β-Galactosidase Activity, Cultured Without ATC” value is reported as 110.179 and the “β-Galactosidase Activity, Cultured With ATC” value is reported as 16.146.

B9: TetRrevAtc4-31: revTetR(BD) A50S D53Y A56G V57I H63Q (protein)
chain: MSRLDKSKVINSALELLNEVGIEGLTTRKLAQKLGVEQPTLYWHVKNKRSLLYGLGIEILARQHDYSLPAAGESWQSFLRNNAMSFRRALLRYRDGAKVHLGTRPDEKQYDTVETQLRFMTENGFSLRDGLYAISAVSHFTLGAVLEQQEHTAALTDRPAAPDENLPPLLREALQIMDSDDGEQAFLHGLESLIRGFEVQLTALLQIV
modifications: Modified tetracycline repressor
notes: revTetR(BD) A50S D53Y A56G V57I H63Q
In the case of B9, the “β-Galactosidase Activity, Cultured Without ATC” value is 65.039 and the “β-Galactosidase Activity, Cultured With ATC” value is on record as 2.181.

B10: TetRrevAtc4-25: revTetR(BD) K48K V57L E58V I59T L60F R62S (protein)
chain: MSRLDKSKVINSALELLNEVGIEGLTTRKLAQKLGVEQPTLYWHVKNKRALLDALALVTFASHHDYSLPAAGESWQSFLRNNAMSFRRALLRYRDGAKVHLGTRPDEKQYDTVETQLRFMTENGFSLRDGLYAISAVSHFTLGAVLEQQEHTAALTDRPAAPDENLPPLLREALQIMDSDDGEQAFLHGLESLIRGFEVQLTALLQIV
modifications: Modified tetracycline repressor
notes: revTetR(BD) K48K V57L E58V I59T L60F R62S
In the case of B10, the “β-Galactosidase Activity, Cultured Without ATC” value came out at 98.629 and the “β-Galactosidase Activity, Cultured With ATC” value is given as 12.116.

B11: TetRrevAtc4-21: revTetR(BD) K6K D53F L55L V57L I59S A61S (protein)
chain: MSRLDKSKVINSALELLNEVGIEGLTTRKLAQKLGVEQPTLYWHVKNKRALLFALALESLSRHHDYSLPAAGESWQSFLRNNAMSFRRALLRYRDGAKVHLGTRPDEKQYDTVETQLRFMTENGFSLRDGLYAISAVSHFTLGAVLEQQEHTAALTDRPAAPDENLPPLLREALQIMDSDDGEQAFLHGLESLIRGFEVQLTALLQIV
modifications: Modified tetracycline repressor
notes: revTetR(BD) K6K D53F L55L V57L I59S A61S
As for B11, the “β-Galactosidase Activity, Cultured Without ATC” value is reported as 104.757 and the “β-Galactosidase Activity, Cultured With ATC” value is 16.831.

B12: TetRrevAtc4-47: revTetR(BD) L51L E58A I59N H63Y (protein)
chain: MSRLDKSKVINSALELLNEVGIEGLTTRKLAQKLGVEQPTLYWHVKNKRALLDALAVANLERYNDYSLPAAGESWQSFLRNNAMSFRRALLRYRDGAKVHLGTRPDEKQYDTVETQLRFMTENGFSLRDGLYAISAVSHFTLGAVLEQQEHTAALTDRPAAPDENLPPLLREALQIMDSDDGEQAFLHGLESLIRGFEVQLTALLQIV
modifications: Modified tetracycline repressor
notes: revTetR(BD) L51L E58A I59N H63Y
As for B12, the “β-Galactosidase Activity, Cultured Without ATC” value came out at 83.987 and the “β-Galactosidase Activity, Cultured With ATC” value was 13.969.

B13: TetRrevAtc4-23: revTetR(BD) A50D L51V L52Q A54A L55L A61S (protein)
chain: MSRLDKSKVINSALELLNEVGIEGLTTRKLAQKLGVEQPTLYWHVKNKRDVQDALAVEILSRHHDYSLPAAGESWQSFLRNNAMSFRRALLRYRDGAKVHLGTRPDEKQYDTVETQLRFMTENGFSLRDGLYAISAVSHFTLGAVLEQQEHTAALTDRPAAPDENLPPLLREALQIMDSDDGEQAFLHGLESLIRGFEVQLTALLQIV
modifications: Modified tetracycline repressor
notes: revTetR(BD) A50D L51V L52Q A54A L55L A61S
As to B13, the “β-Galactosidase Activity, Cultured Without ATC” value was 105.95 and the “β-Galactosidase Activity, Cultured With ATC” value was determined as 21.606.

B14: TetRrevAtc4-40: revTetR(BD) A56P L60L A61G R62R (protein)
chain: MSRLDKSKVINSALELLNEVGIEGLTTRKLAQKLGVEQPTLYWHVKNKRALLDALPVEILGRHHDYSLPAAGESWQSFLRNNAMSFRRALLRYRDGAKVHLGTRPDEKQYDTVETQLRFMTENGFSLRDGLYAISAVSHFTLGAVLEQQEHTAALTDRPAAPDENLPPLLREALQIMDSDDGEQAFLHGLESLIRGFEVQLTALLQIV
modifications: Modified tetracycline repressor
notes: revTetR(BD) A56P L60L A61G R62R
On to B14, for which the “β-Galactosidase Activity, Cultured Without ATC” value came out at 56.743 and the “β-Galactosidase Activity, Cultured With ATC” value is reported as 14.428.

B15: TetRrevAtc4-43: revTetR(BD) L52V A56V V57L I59T A61S (protein)
chain: MSRLDKSKVINSALELLNEVGIEGLTTRKLAQKLGVEQPTLYWHVKNKRALVDALVLETLSRHHDYSLPAAGESWQSFLRNNAMSFRRALLRYRDGAKVHLGTRPDEKQYDTVETQLRFMTENGFSLRDGLYAISAVSHFTLGAVLEQQEHTAALTDRPAAPDENLPPLLREALQIMDSDDGEQAFLHGLESLIRGFEVQLTALLQIV
modifications: Modified tetracycline repressor
notes: revTetR(BD) L52V A56V V57L I59T A61S
Take B15: the “β-Galactosidase Activity, Cultured Without ATC” value is listed as 99.61 and the “β-Galactosidase Activity, Cultured With ATC” value is 13.878.
